Residue numbers refer to the chain shown, from its start. Names and notes keep the numbering of the source.
B1: human adenovirus type 3 (Ad3) fiber, on particles of the Ad3 vector (natural protein)
chain: MAKRARLSTSFNPVYPYEDESSSQHPFINPGFISPDGFTQSPNGVLSLKCVNPLTTASGSLQLKVGSGLTVDTTDGSLEENIKVNTPLTKSNHSINLPIGNGLQIEQNKLCSKLGNGLTFDSSNSIALKNNTLWTGPKPEANCIIEYGKQNPDSKLTLILVKNGGIVNGYVTLMGASDYVNTLFKNKNVSINVELYFDATGHILPDSSSLKTDLELKYKQTADFSARGFMPSTTAYPFVLPNAGTHNENYIFGQCYYKASDGALFPLEVTVMLNKRLPDSRTSYVMTFLWSLNAGLAPETTQATLITSPFTFSYIREDD
B2: human adenovirus type 3 (Ad3) fiber with the JO4 mutation (V239D), on particles of the Ad3-JO4 vector (natural protein)
chain: B1 chain with V239D

Biological target: CD46, stably expressed on CHO cells (CHO-CD46) (human) (UniProt P15529)
Chain of UniProt P15529 (P15529 35-392): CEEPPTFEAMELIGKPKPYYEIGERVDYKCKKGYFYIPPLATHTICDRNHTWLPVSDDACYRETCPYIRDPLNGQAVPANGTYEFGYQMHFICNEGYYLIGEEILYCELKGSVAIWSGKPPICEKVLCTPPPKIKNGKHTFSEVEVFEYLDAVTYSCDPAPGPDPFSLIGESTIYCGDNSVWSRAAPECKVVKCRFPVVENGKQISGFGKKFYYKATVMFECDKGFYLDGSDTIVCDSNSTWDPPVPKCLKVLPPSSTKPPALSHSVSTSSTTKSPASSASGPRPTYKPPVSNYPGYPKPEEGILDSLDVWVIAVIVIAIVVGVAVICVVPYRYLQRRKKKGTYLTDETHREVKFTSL

| Binder | percent GFP-positive cells by flow cytometry after infection of CHO-CD46 cells with 2000 vp/c of the Ad3 vector (transduction; CHO-K1 without receptor is not transduced) | percent GFP-positive cells by flow cytometry after infection of CHO-CD46 cells with 2000 vp/c of the Ad3-JO4 vector (transduction; CHO-K1 without receptor is not transduced) |
| --- | --- | --- |
| B1 | 13% | – |
| B2 | – | < 5% |
